The term stoichiometry N denotes the number of molecules, sites or subunits per partner or assembly.

This test concerns the target HIV-1 Gag-glutathione-S-transferase (GST) fusion protein, wild type (HIV-1). Briefly: cross-linking + pull-down.

B1: 2',3'-cyclic-nucleotide 3'-phosphodiesterase (CNP), human, wild type (natural protein)
chain: MNRGFSRKSHTFLPKIFFRKMSSSGAKDKPELQFPFLQDEDTVATLLECKTLFILRGLPGSGKSTLARVIVDKYRDGTKMVSADAYKITPGARGAFSEEYKRLDEDLAAYCRRRDIRILVLDDTNHERERLEQLFEMADQYQYQVVLVEPKTAWRLDCAQLKEKNQWQLSADDLKKLKPGLEKDFLPLYFGWFLTKKSSETLRKAGQVFLEELGNHKAFKKELRQFVPGDEPREKMDLVTYFGKRPPGVLHCTTKFCDYGKAPGAEEYAQQDVLKKSYSKAFTLTISALFVTPKTTGARVELSEQQLQLWPSDVDKLSPTDNLPRGSRAHITLGCAADVEAVQTGLDLLEILRQEKGGSRGEEVGELSRGKLYSLGNGRWMLTLAKNMEVRAIFTGYYGKGKPVPTQGSRKGGALQSCTII
For B1, the stoichiometry N is 1 CNP:Gag-GST.

The record behind these values is publication PMC3498451.
